Experimental data taken from PMC2940250.

Legend:
Test in all cases: other fluorescence titration
[1] = biological target: C1 chimeric virus (HRV14:HIV-1 gp41 ELDKWAS chimera) (human rhinovirus 14 | HIV-1 HxB2)
[2] = biological target: B1 chimeric virus (HRV14:HIV-1 gp41 ELDKWAS chimera) (human rhinovirus 14 | HIV-1 HxB2)
[3] = biological target: 14-C40-1 chimeric virus (HRV14:HIV-1 gp41 ALDKWAS chimera from a previous library) (human rhinovirus 14 | HIV-1 HxB2)

**Q.** For “broadly neutralizing human mAb 2F5 (antibody)”, which Kd [1] is on record?
**A.** The Kd was 23.8 nM.

**Q.** What about the Kd [2] of the same substance?
**A.** The Kd was 2 nM.

**Q.** What about the Kd [3] of the same substance?
**A.** The Kd was 769 nM.
